These are literature values, as cited in PMC2647589.

For orientation: Kd means a measure of binding affinity in units of concentration.

In this data set the target is MeTRH (UniProt P20396).
Sequence of UniProt P20396 (P20396 whole entry, looked up): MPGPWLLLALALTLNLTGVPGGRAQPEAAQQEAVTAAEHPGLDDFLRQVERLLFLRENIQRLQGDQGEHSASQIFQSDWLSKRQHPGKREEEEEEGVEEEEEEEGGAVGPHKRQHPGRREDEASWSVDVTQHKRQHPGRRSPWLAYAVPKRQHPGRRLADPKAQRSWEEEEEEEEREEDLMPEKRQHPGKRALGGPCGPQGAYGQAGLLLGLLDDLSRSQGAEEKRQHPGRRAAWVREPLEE

Regarding TRH receptor (from UniProt P21761), the dissociation constant Kd was 2 nM.
